Source: patent US20240116985A1 (published 2024)
Values belong to the binder of their own block, whether it stands above or below them. Starred links: 1 amine or outer side, 2 acyl side, 3 side chain; linkers in the order of their positions; H or OH if unused. Positions of bridges follow the written chain, without caps; N, C: chain ends. Non-standard residues stand in square brackets, D forms with d. Primed or numbered codes have the meaning given here. *: point of attachment. PyrS2(3) = (S)-3-amino-1-((pent-4-en-1-yloxy)carbonyl)pyrrolidine-3-carboxylic acid, stapling residue, C=CCCCOC(=O)N1CC[C@@](N[*:1])(C(=O)[*:2])C1; PyrS2″ = (S)-3-amino-1-((pent-4-en-1-yloxy)carbonyl)pyrrolidine-3-carboxylic acid (stapling residue), C=CCCCOC(=O)N1CC[C@@](N[*:1])(C(=O)[*:2])C1; B5(16) = 2-amino-2-(pent-4-en-1-yl)hept-6-enoic acid = 2,2-bis(4-pentenyl)glycine (stitching residue), C=CCCCC(CCCC=C)(N[*:1])C(=O)[*:2]; B5(24) = 2-amino-2-(pent-4-en-1-yl)hept-6-enoic acid, 2,2-bis(4-pentenyl)glycine (stitching residue), C=CCCCC(CCCC=C)(N[*:1])C(=O)[*:2]; B5(4) = 2,2-bis(4-pentenyl)glycine = 2-amino-2-(pent-4-en-1-yl)hept-6-enoic acid (stitching residue), C=CCCCC(CCCC=C)(N[*:1])C(=O)[*:2]; B5(5) = 2,2-bis(4-pentenyl)glycine, 2-amino-2-(pent-4-en-1-yl)hept-6-enoic acid (stitching residue), C=CCCCC(CCCC=C)(N[*:1])C(=O)[*:2]; B5(21) = 2-amino-2-(pent-4-en-1-yl)hept-6-enoic acid, bis(4-pentenyl)glycine (stitching residue), C=CCCCC(CCCC=C)(N[*:1])C(=O)[*:2]; TfeGA = (S)-2-amino-3-((carboxymethyl)(2,2,2-trifluoroethyl)amino)propanoic acid, O=C([C@H](CN(CC(=O)[*:3])CC(F)(F)F)N[*:1])[*:2]; EtGA = (S)-2-amino-3-((carboxymethyl)(ethyl)amino)propanoic acid, CCN(CC(=O)[*:3])C[C@H](N[*:1])C(=O)[*:2]; B5(3) = 2,2-bis(4-pentenyl)glycine (stitching residue), C=CCCCC(CCCC=C)(N[*:1])C(=O)[*:2]; B5″ = 2,2-bis(4-pentenyl)glycine, stitching residue, C=CCCCC(CCCC=C)(N[*:1])C(=O)[*:2]; Phe(2-Cl) = N[C@@H](Cc1ccccc1Cl)C(=O)O; Phe(2-OMe) = COc1ccccc1C[C@H](N)C(=O)O; Bta = N[C@@H](Cc1csc2ccccc12)C(=O)O; αAllylPro = C=CC[C@@]1(C(=O)O)CCCN1; tBuAla = CC(C)(C)C[C@H](N)C(=O)O; 3Thi = N[C@@H](Cc1ccsc1)C(=O)O; Cha = N[C@@H](CC1CCCCC1)C(=O)O; Cit = NC(=O)NCCC[C@H](N)C(=O)O; S8 = C=CCCCCCC[C@](C)(N)C(=O)O; Alaol = C[C@@H](CO)N*

How the values were obtained:
[1] = target: T1, B-cat-Halo (beta-catenin HaloTag NanoBRET construct expressed in HEK293 cells) (UniProt P35222 1-781); assay: cell-based or functional assay
T1 sequence (looked up): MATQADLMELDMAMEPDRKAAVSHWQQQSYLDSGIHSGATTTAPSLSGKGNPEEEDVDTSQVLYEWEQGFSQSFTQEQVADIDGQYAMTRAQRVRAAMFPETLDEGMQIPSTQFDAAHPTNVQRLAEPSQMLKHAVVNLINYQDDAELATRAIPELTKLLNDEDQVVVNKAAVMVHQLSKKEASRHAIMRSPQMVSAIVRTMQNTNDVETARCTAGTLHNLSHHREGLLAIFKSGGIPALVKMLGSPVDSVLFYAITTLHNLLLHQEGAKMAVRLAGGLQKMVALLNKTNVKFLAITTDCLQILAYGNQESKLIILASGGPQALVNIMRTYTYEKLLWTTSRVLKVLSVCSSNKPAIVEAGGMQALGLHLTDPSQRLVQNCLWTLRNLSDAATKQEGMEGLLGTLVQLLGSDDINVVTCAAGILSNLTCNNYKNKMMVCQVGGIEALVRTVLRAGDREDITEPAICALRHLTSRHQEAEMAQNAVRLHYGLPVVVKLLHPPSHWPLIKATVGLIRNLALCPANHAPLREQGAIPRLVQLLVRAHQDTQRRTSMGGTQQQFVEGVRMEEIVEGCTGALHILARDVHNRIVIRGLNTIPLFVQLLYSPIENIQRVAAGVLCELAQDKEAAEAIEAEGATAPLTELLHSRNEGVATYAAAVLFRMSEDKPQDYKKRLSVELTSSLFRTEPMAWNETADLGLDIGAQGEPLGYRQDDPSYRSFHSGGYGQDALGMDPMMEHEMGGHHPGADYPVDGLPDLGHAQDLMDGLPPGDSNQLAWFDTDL

B-cat-Halo [2] = target: T2, B-cat-Halo (UniProt P35222 1-781); assay: cell-based or functional assay
T2 sequence (looked up): T1 sequence (looked up)

B-cat-Halo [3] = target: T3, B-cat-Halo (UniProt P35222 1-781); assay: cell-based or functional assay; remark: listed apart in the source
T3 sequence (looked up): T1 sequence (looked up)

[4] = target: T4, full-length beta-Catenin (Uniprot ID P35222) (Homo sapiens (Human), UniProt P35222 1-781); assay: fluorescence polarization competition; peptide titrated against 10 nM full-length beta-catenin + 10 nM 5FAM-TCF4(10-53) probe
T4 construct: The assay text says 'full-length'; also called bCat; B-Catenin
T4 sequence: T1 sequence (looked up)
Description: The plate was incubated protected from light for 60 minutes at 20° C. prior to read. Reads were performed on a CLARIOstar plate reader (BMG Labtech) in duplicate, and data were fitted to a 1:1 binding model with hill slope using an in-house script. All provided concentrations are final concentrations.

B-cat-Halo [5] = target: B-cat-Halo (UniProt P35222 1-781); assay: cell-based or functional assay; remark: listed apart in the source
[6] = target: T5, B-cat-Halo (NanoBRET construct expressed in HEK293 cells) (UniProt P35222 1-781, HaloTag NanoBRET 618 Ligand bound in the assay); assay: cell-based or functional assay
T5 sequence (looked up): T1 sequence (looked up)

[7] = target: T6, beta-catenin (in DLD1 TCF/LEF luciferase reporter cells) (UniProt P35222 1-781); assay: cell-based or functional assay
T6 sequence (looked up): T1 sequence (looked up)

[8] = target: T7, B-cat-Halo (beta-catenin HaloTag fusion expressed in HEK293 cells) (UniProt P35222 1-781); assay: cell-based or functional assay
T7 sequence (looked up): T1 sequence (looked up)

B-cat-Halo [9] = target: T8, B-cat-Halo (UniProt P35222 1-781); assay: cell-based or functional assay; remark: listed apart in the source
T8 sequence (looked up): T1 sequence (looked up)

[10] = target: T9, beta-catenin in DLD1 TCF/LEF luciferase reporter cells (UniProt P35222 2-781); assay: cell-based or functional assay
T9 sequence (looked up): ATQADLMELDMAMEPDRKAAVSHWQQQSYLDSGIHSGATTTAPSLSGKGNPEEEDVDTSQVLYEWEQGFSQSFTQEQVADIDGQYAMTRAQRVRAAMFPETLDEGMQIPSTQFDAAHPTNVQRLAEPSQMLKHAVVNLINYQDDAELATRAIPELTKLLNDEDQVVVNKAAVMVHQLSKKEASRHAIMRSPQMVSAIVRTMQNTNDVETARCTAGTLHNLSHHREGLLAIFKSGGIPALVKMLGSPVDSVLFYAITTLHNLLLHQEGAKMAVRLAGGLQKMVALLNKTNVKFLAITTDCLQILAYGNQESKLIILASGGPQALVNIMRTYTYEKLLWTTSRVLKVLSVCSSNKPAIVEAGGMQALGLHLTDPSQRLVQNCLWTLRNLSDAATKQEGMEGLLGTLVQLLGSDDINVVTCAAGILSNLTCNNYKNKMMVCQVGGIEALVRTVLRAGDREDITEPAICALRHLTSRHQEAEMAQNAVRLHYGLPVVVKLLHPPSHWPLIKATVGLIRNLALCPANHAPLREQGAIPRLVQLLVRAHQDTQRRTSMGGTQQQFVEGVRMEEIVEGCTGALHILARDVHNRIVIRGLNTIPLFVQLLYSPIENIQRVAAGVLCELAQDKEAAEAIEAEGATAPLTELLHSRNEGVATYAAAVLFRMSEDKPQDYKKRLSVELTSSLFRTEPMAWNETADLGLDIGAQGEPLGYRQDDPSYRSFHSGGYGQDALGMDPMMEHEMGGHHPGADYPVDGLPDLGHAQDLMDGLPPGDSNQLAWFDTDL

[11] = target: T10, B-cat-Halo (beta-catenin HaloTag NanoBRET construct expressed in HEK293 cells) (Homo sapiens (Human), UniProt P35222 1-781); assay: cell-based or functional assay
T10 sequence: T1 sequence (looked up)

[12] = target: T11, beta-catenin in DLD1 TCF/LEF luciferase reporter cells (Homo sapiens (Human), UniProt P35222 2-781); assay: cell-based or functional assay
T11 sequence: T9 sequence (looked up)

B1: I-629 (peptide)
peptide: Ac-[αAllylPro]DL[B5(16)]DEAAF[Cit][S8]F[Bta]-NH2
modifications: staple 1-4, 4-11; not fully specified; printed as Ac-PL3-Asp-Leu-B5-Asp-Glu-Ala-Ala-Phe-Cit-S8-Phe-BztA-NH2
NanoBRET Abs IC50 (B-cat-Halo [2]): 30 µM

Binder: Ac-[αAllylPro]DA[B5(24)]DEAAFN[S8][Phe(2-OMe)][Bta]Q-NH2 (staple 1-4, 4-11, Stapled peptide composition) [I-437]
NanoBRET Abs IC50 (B-cat-Halo [3]): 17.5 µM
IC50 [4]: 0.026 µM

Binder: Ac-[αAllylPro]D[tBuAla][B5(5)]DDAAFN[S8][3Thi][Bta]Q-NH2 (staple 1-4, 4-11) [I-679]
NanoBRET % inh @ 10 uM (B-cat-Halo [5]): 44.8%

Binder: Ac-[αAllylPro]D[Cha][B5(16)]DEAAFN[S8]F[Bta]Q-NH2 (staple 1-4, 4-11; also: later-eluting staple isomer composition) [I-620]
NanoBRET IC50 [8]: 5.8 µM

Binder: Ac-[αAllylPro]D[tBuAla][B5(4)]DDAAFT[PyrS2″][Phe(2-Cl)][Bta]-Alaol (staple 1-4, 4-11; also: C-terminal Alao1 group, meaning not given here) [I-1246]
NanoBRET Abs IC50 [11]: 24.3 µM
DLD1 4% Abs IC50 [12]: 16.2 µM

Other lines, results leading:

NanoBRET Abs IC50 [1]: > 20 µM
Binder: Ac-[αAllylPro]DA[B5(21)]DEAAFN[PyrS2″]F[Bta]Q-NH2 (staple 1-4, 4-11) [I-462]

NanoBRET Abs IC50 [6]: 14 µM
DLD1 4% Abs IC50 [7]: 7.9 µM
Binder: Ac-[αAllylPro]D[tBuAla][B5″]D[TfeGA]AAFN[PyrS2(3)][3Thi][Bta]Q-NH2 (staple 1-4, 4-11) [I-762]

NanoBRET Abs IC50 (B-cat-Halo [9]): 19 µM
DLD1 4% Abs IC50 [10]: 10.1 µM
Binder: Ac-[αAllylPro]D[tBuAla][B5(3)]D[EtGA]AAFL[PyrS2″][3Thi][Bta]Q-NH2 (staple 1-4, 4-11; also: later-eluting HPLC isomer) [I-973]
